Data taken from patent US20250333496A1 (Novo Nordisk, published 2025).

Experiments:
[1] = target: T1, human IL-6 (mature hIL-6) (human, UniProt P05231 30-212); test: cell-based or functional assay
[2] = target: T2, recombinant human HPC4-tagged IL-6 (human, UniProt P05231 30-212); test: SPR, HPC4-IL-6 captured on anti-HPC4 antibody, VHH injected, 25 C, 1:1 model
T2 construct: captured on an anti-HPC4 antibody in SPR; also called HPC4-human IL6
Protocol: Binding of purified anti-IL-6 VHHs to recombinant human HPC4-tagged IL-6 (SEQ ID NO: 98) was probed by Surface Plasmon Resonance (SPR).
IL-6 was captured at a flow rate of 10 μL/min for 30 seconds.
Subsequently, concentration series of VHH polypeptides according to Table 33 were injected at a flow rate of 50 μL/min for 200 seconds to allow for binding to […] followed by 600 seconds running buffer (10 mM HEPES, 150 mM NaCl, 5 mM CaCl₂, 0.05% (v/v) Surfactant P20, 1 mg/mL bovine serum albumin, pH 7.4) injection allowing dissociation from IL-6. The running buffer was also used for dilution of anti-IL-6 VHHs and IL-6. Regeneration of the chip was achieved using a regeneration buffer consisting of 50 mM EDTA in running buffer without CaCl₂, 30 seconds contact time, and a 30 μL/min flow rate applied twice to the surface. The binding data were collected at 25° C. at either a Biacore instrument (Cytiva AB, Uppsala) or a Bruker SPR32 (Bruker Daltonics). Data were analysed according to a 1:1 model using either BiaEvaluation or Biacore Insight Evaluation (Cytiva AB, Uppsala) or Bruker Analyser (Bruker Daltonics).

[3] = target: T1, human IL-6 (mature hIL-6); test: SPR (format not stated)
[4] = target: T1, human IL-6 (mature hIL-6); test: cell-based or functional assay; remark: listed apart in the source
[5] = target: T1, human IL-6 (mature hIL-6); test: cell-based or functional assay; remark: listed apart in the source
[6] = target: T1, human IL-6 (mature hIL-6); test: cell-based or functional assay; remark: listed apart in the source

T1 sequence (P05231 30-212): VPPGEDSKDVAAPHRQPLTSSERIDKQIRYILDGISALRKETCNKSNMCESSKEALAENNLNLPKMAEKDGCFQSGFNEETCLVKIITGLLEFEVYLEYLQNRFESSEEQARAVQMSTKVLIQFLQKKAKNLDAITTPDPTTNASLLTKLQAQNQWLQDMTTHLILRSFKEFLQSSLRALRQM
T2 sequence (P05231 other isoform, or with tags, fused parts or gaps limits assumed): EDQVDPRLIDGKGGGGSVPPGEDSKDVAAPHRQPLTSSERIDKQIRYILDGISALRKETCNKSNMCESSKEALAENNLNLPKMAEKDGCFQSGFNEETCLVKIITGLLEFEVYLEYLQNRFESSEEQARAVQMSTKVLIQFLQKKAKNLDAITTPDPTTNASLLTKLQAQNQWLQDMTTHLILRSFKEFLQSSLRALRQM

Row | Binder | Kd [3] [pM] | Reporter gene-assay [pM] [4] [pM] | other results
1 | Polypeptide_34 (VHH, VHH_1.8 with C-terminal His tag extension E1; also called [VHH_1.8]-E1) VHH: EVQLVESGGGLVQAGGSLRLSCTASGGTFSEYAMAWFRQAPGKEREFVTDIGESGGTWYADSVKGRFTISRDNAKNTVYLQMNSLRPEDTAVYYCAADSYGVGGGAERYYDSWGQGTQVTVSS | ~13.6 | 43.6 | IC 50 (nM), reporter gene assay, 0% HSA [1]: 0.066 nM; IC 50 (nM), reporter gene assay, 1% HSA [1]: 0.046 nM; Kd [2]: 13.6 pM; kon [2]: 2.88e+07 M⁻¹ s⁻¹
2 | Polypeptide_6 (VHH, VHH_2.6 with C-terminal His tag extension E1; also called [VHH_2.6]-E1) VHH: QVQLQESGGGLVQAGGSLRLSCTTSGRTFSDYAMAWFRQAPGKDREFVADIGTNSENTWYAESVKGRFTISRDNTKNTIYLQMNSLKPEDTAVYYCAADSYGVGGGKQEYYDSWGQGAQVTVSS | 1520 | 73.4 | –
3 | Polypeptide_8 (VHH, VHH_2.8 with C-terminal His tag extension E1; also called [VHH_2.8]-E1) VHH: QVQLVESGGGLVQPGGSLRLSCAASGFTFSSYWMYWVRQAPGKGLEWVSGINTGGSTPDYADSVKGRFTISRDNAKNTLYLQMNSLRPEDTAVYYCAADTPRSFRLNHYSPLGQGTQVTVSS | 816 | 36.8 | –
4 | Polypeptide_9 (VHH, VHH_2.9 with C-terminal His tag extension E1; also called [VHH_2.9]-E1) VHH: QVQLVESGGGLVQPGGSLRLSCAASGFTFSNYWMYWVRQAPGKGLEWVSGIDTRGSTPDYADSVKGRFTISRDNAKSTFYLQMNSLRPEDTAVYYCATDTPRSFRLYHYVPLGQGTQVTVSS | 903 | 33.7 | –
5 | Polypeptide_5 (VHH, VHH_2.5 with C-terminal His tag extension E1; also called [VHH_2.5]-E1) VHH: QLQLVESGGGLVQPGGSLRLSCAASGFTFSNYWMYWVRQAPGKGLEWVSGINTGGSTPDYADSVKGRFTISRDNAKNTLYLQMNSLRPEDTAVYYCAADTPRVFRLDHYSPLGQGTQVTVSS | 696 | 23.2 | –
6 | Polypeptide_2 (VHH, VHH_2.2 with C-terminal His tag extension E1; also called [VHH_2.2]-E1) VHH: EVQLVESGGGLVQPGGSLRLSCAASGFTFSNYWMYWVRQAPGKGLEWVSGINTGGSTPDYADSVKDRFTISRDNAKNTLYLQMNSLRPADTAVYYCAADTPRSFRLNHYAPLGQGTQVTVSS | 1310 | 20.7 | –
7 | Polypeptide_10 (VHH, VHH_2.10 with C-terminal His tag extension E1; also called [VHH_2.10]-E1) VHH: QVQLQESGGGLVQAGGSLRLSCTVSGRTFSTYAMGWFRQAPGKEREFVADINWNSDNIWYADSVKGRFTISRDNAKNVMYLQMNSLKPEDTAVYYCAADSYGVGGGKEEYYDSWGQGTQVTVSS | 1030 | 114 | –
8 | Polypeptide_4 (VHH, VHH_2.4 with C-terminal His tag extension E1; also called [VHH_2.4]-E1) VHH: QVQLQESGGGLVQAGGSLRLSCTVSGRTFSTYAMGWFRQAPGKEREFVADINWNSDNLWYADSVKGRFTISRDNAKNTMYLQMNSLKPEDTAVYYCAVDSYGVGGGKPEYYDSWGQGTQVTVSS | 1460 | 198 | –
9 | Compound 14 (VHH, Chem. 24 (C16 fatty acid substituent) on Cys in position 4 of the extension (SEQ ID NO: 161)) VHH: EVQLVESGGGLVQPGGSLKLSCTTSGRRFSEYAVGWFRQAPGKEREFVADIGEQAENTWYAESVLGRFTISRDDAKNTVYLEMDGLKPEDTAVYYCAADKYGVGGNAQGYYDSWGQGTQVTVSS | – | – | IC50 (nM) mean, STAT3-luc reporter gene assay [5]: 0.041 nM; Relative IC50 to Polypeptide_29 [5]: 1.1 fold
10 | Compound 17 (VHH, Chem. 24 (C16 fatty acid substituent) on Cys in position 4 and on Cys in position 6 of the extension (SEQ ID NO: 162)) VHH: EVQLVESGGGLVQPGGSLKLSCTTSGRRFSEYAVGWFRQAPGKEREFVADIGEQAENTWYAESVLGRFTISRDDAKNTVYLEMDGLKPEDTAVYYCAADKYGVGGNAQGYYDSWGQGTQVTVSS | – | – | IC50 (nM) mean, STAT3-luc reporter gene assay [5]: 0.04 nM; Relative IC50 to Polypeptide_29 [5]: 1 fold
11 | Compound 16 (VHH, Chem. 27 (C20 fatty acid substituent) on Cys in position 4 of the extension (SEQ ID NO: 161)) VHH: EVQLVESGGGLVQPGGSLKLSCTTSGRRFSEYAVGWFRQAPGKEREFVADIGEQAENTWYAESVLGRFTISRDDAKNTVYLEMDGLKPEDTAVYYCAADKYGVGGNAQGYYDSWGQGTQVTVSS | – | – | IC50 (nM) mean, STAT3-luc reporter gene assay [5]: 0.054 nM; Relative IC50 to Polypeptide_29 [5]: 1.6 fold
12 | Compound 15 (VHH, Chem. 26 (C18 fatty acid substituent) on Cys in position 4 of the extension (SEQ ID NO: 161)) VHH: EVQLVESGGGLVQPGGSLKLSCTTSGRRFSEYAVGWFRQAPGKEREFVADIGEQAENTWYAESVLGRFTISRDDAKNTVYLEMDGLKPEDTAVYYCAADKYGVGGNAQGYYDSWGQGTQVTVSS | – | – | IC50 (nM) mean, STAT3-luc reporter gene assay [5]: 0.046 nM; Relative IC50 to Polypeptide_29 [5]: 1.3 fold
13 | Polypeptide_1 (VHH, VHH_2.1 with C-terminal His tag extension E1; also called [VHH_2.1]-E1) VHH: QVQLVESGGDLVQPGGSLRLSCTTSGRTFSSYAMGWFRQAPGKEREFVADIGENADNRWYAHSVKGRFTISRDNAKNTVYLQMNSLKPEDTAVYYCAADRYGVGGGAQGYYDSWGQGTQVTVSS | 627 | 47.4 | –
14 | Polypeptide_7 (VHH, VHH_2.7 with C-terminal His tag extension E1; also called [VHH_2.7]-E1) VHH: EVQLVESGGRWVQPGASLRLSCTTSGRTFSSYAMGWFRQAPGKEREFVADIGENADNRWYAHSVKGRFTISRDNAKNTVYLQMNSLKPEDTAVYYCAADRYGVGGGAQGYYDSWGQGTQVTVSS | 631 | 42.1 | –

The next lines start with results.

Row | Kd [3] [pM] | Reporter gene-assay [pM] [4] [pM] | Binder | other results
15 | 1 | 16.8 | Polypeptide_15 (VHH, VHH_2.15 with C-terminal His tag extension E1; also called [VHH_2.15]-E1) VHH: QVQLQESGGGLVQAGGSLRLSCTASGGTFSEYAMAWFRQAPGKEREFVTDIGESGGTWYADSVKGRFTISRDNAKNTVYLQMNSLRPEDTAVYYCAADSYGVGGGAERYYDSWGQGTQVTVSS | –
16 | 1 | 24.6 | Polypeptide_35 (VHH, VHH_1.10 with C-terminal His tag extension E1; also called [VHH_1.10]-E1) VHH: QVQLVESGGGLVQAGGSLRLSCTASGGTFGEYAMAWFRQAPGKEREFVTDIGESGGTWYADSVKGRFTISRDNAKNTVYLQMNSLRPEDTAVYYCAADSYGVGGGAERYYDSWGQGTQVTVSS | –
17 | 1 | 77.4 | Polypeptide_12 (VHH, VHH_2.12 with C-terminal His tag extension E1; also called [VHH_2.12]-E1) VHH: QVQLVESGGGLVQAGGSLRLSCTTSGRTFSSYAMAWFRQAPGKDREFVADIGENSDNIWYADSVKGRFTISRDNAKNTILLQMNSLKPEDTAVYYCAADSYGVGGGKPEYYDSWGQGAQVTVSS | –
18 | 705 | 18.5 | Polypeptide_18 (VHH, VHH_1.16 with C-terminal His tag extension E1; also called [VHH_1.16]-E1) VHH: EVQLVESGGGLVQPGGSLRLSCAASGFTFSNYWMYWVRQAPGKGLEWVSGINTGGSTPDYADSVKGRFAISRDNAKNTLYLQMNSLRPEDTAVYYCAADTPRVFRLDHYSPLGQGTQVTVSS | IC 50 (nM), reporter gene assay, 0% HSA [1]: 0.02 nM; IC 50 (nM), reporter gene assay, 1% HSA [1]: 0.02 nM
19 | 70.1 | 98.2 | Polypeptide_11 (VHH, VHH_2.11 with C-terminal His tag extension E1; also called [VHH_2.11]-E1) VHH: EVQLVESGGGLVQAGGSLRLSCTASGRSFSSYAMGWFRQAPGKEREFVADIGVNPDNTWYADSAKGRFTISRDNAKNTMYLQMNSLKPEDTAVYYCAADSYGVGGGAERYYDSWGQGTQVTVSS | –
20 | 1 | 80.9 | Polypeptide_13 (VHH, VHH_2.13 with C-terminal His tag extension E1; also called [VHH_2.13]-E1) VHH: EVQLVESGGGLVQAGGPLRLSCTVSGRTFSTYAMGWFRQAPGKEREFVADINWNSDNIWYADSVKGRFTISRDNAKNVMYLQMNSLKPEDTAVYYCAADSYGVGGGKEEYYDSWGQGTQVTVSS | –
21 | 257 | 84.1 | Polypeptide_17 (VHH, VHH_2.17 with C-terminal His tag extension E1; also called [VHH_2.17]-E1) VHH: QVQLVESGGGLVQAGGSLRLSCTVSGRTFSTYAMGWFRQAPGKEREFVADINWNSDNIWYADSVKGRFTISRDNAKNVMYLQMNSLKPEDTAVYYCAADSYGVGGGKEEYYDSWGQGTQVTVSS | –
22 | 1 | 40.6 | Polypeptide_19 (VHH, VHH_1.11 with C-terminal His tag extension E1; also called [VHH_1.11]-E1) VHH: QLQLVESGGGWVQPGGSLKLSCTTSGRTFSSYAVGWFRQAPGKEREFVADIGENADNTWYAHSVKGRFTISRDNAKNTVYLQMNSLKPEDTAVYYCAADSYGVGGGAQGYYDSWGQGTQVTVSS | IC 50 (nM), reporter gene assay, 0% HSA [1]: 0.117 nM; IC 50 (nM), reporter gene assay, 1% HSA [1]: 0.064 nM; IC50 (nM), STAT3-luc reporter gene assay [6]: 0.185 nM; Relative IC50 to Reference Polypeptide_29 [6]: 5.4 fold
23 | 396 | 72.9 | Polypeptide_14 (VHH, VHH_2.14 with C-terminal His tag extension E1; also called [VHH_2.14]-E1) VHH: QLQLVESGGGSVQVGDSLRLSCTFSGRSFSSYAMGWFRQAPGKEREFVADIGENADNTWYAHSVKGRFTISRDNAKNTVYLQMNSLKPEDTAVYYCAADSYGVGGGAQGYYDSWGQGTQVTVSS | –
24 | 358 | 62.1 | Polypeptide_33 (VHH, VHH_1.9 with C-terminal His tag extension E1; also called [VHH_1.9]-E1) VHH: EVQLVESGGGLVQPGGSLRLSCTTSGRTFSSYAVGWFRQAPGKEREFVADIGENADNTWYAHSVKGRFTISRDNAKNTVYLQMNSLKPEDTAVYYCAADSYGVGGGAQGYYDSWGQGTQVTVSS | –
25 | 1 | 52.4 | Polypeptide_16 (VHH, VHH_2.16 with C-terminal His tag extension E1; also called [VHH_2.16]-E1) VHH: EVQLVESGGGLVQPGGSLSLSCTASGRTFSSYAMGWFRQAPGKEREFVADIGENADNRWYAHSVKGRFTISRDNAKNTVYLQMNSLKPEDTAVYYCAADRYGVGGGAQGYYDSWGQGTQVTVSS | –
